We go through 1 molecule from patent US20260055200A1, “COMBINATION THERAPIES” (Alligator Bioscience AB, priority 2022, published 2026).

The nature of the data set: OPTIMIZE-1 safety and tolerability (AEs, DLTs, RP2D; CTCAE v5.0). It counts as in vivo. The procedure: Two dose levels, 450 μg/kg and 900 μg/kg, of mitazalimab were planned to be administered in combination with mFOLFIRINOX in Part 1. During the first treatment cycle (the first 21 days) for each patient, mitazalimab was administered on Day 1 and Day 10 and mFOLFIRINOX infusion started on Day 8. During the following 14-day treatment cycles, mFOLFIRINOX was administered on Day 1 and mitazalimab on Day 3 of each cycle, see FIG. 3. In case the number of DLTs for a dose level fulfilled the stop criteria, see Table 3 Escalation rules based on number of patients with DLTs, at the lowest dose level of mitazalimab, the chemotherapy mFOLFIRINOX could be exchanged to the chemotherapy gemcitabine plus nab-paclitaxel, as illustrated in FIG. 2. If changing the chemotherapy from mFOLFIRINOX to gemcitabine plus nab-paclitaxel, see dosage schedule in Example 5.
The dose escalation in Part 1 follows a BOIN design with at least 3 evaluable patients per dose level. According to the BOIN design, each time a cohort of patients has been completed, a decision is made whether the next cohort should remain on the same dose, escalate to the next higher dose level or de-escalate to the next lower dose level, according to the decision rules presented in Table 3 below. A range of 3-9 patients was included at each dose level. In this study, the de-escalation from 450 μg/kg mitazalimab in combination with mFOLFIRINOX was a change of chemotherapy to gemcitabine plus nab-paclitaxel as previously described.
Mitazalimab in combination with mFOLFIRINOX: The DLT evaluation period is defined as the time from the first dose of mitazalimab (Day 1) until Day 21 in the first treatment cycle (Cycle 1). Mitazalimab in combination with gemcitabine plus nab-paclitaxel: The DLT evaluation period is defined as the time from the first dose of mitazalimab (Day 1) until Day 28 within the first treatment cycle of 35 days (Cycle 1). This period enabled the DRC to evaluate for early safety of mitazalimab together with the chemotherapy combination.
The same DLT criteria applied for mitazalimab in combination with mFOLFIRINOX and gemcitabine plus nab-paclitaxel. A DLT was considered related to study treatment unless there is a clear, well-documented, alternative explanation for the adverse event (AE). AEs that meet the above criteria but occur after the DLT evaluation period were not defined as DLTs, unless the onset of the event was during the DLT evaluation period. The event could be reported as AEs/Serious adverse events (SAEs), as applicable.
Number or patients experiencing AEs and number of events were summarized by SOC and preferred term. In addition, the following AEs were presented: • Incidence of DLT (Part 1); • AEs Grade 3 or higher; • Serious AEs; • AEs leading to discontinuation of study treatment; and • AEs leading to death.
The safety set comprised all patients that received any study treatment (mitazalimab) and was used for all endpoints related to the safety objectives.
The objective of the first (Phase 1b) part of the study was to determine the RP2D of mitazalimab+mFOLFIRINOX. Mitazalimab was escalated from 450 μg/kg to 900 μg/kg following a Bayesian optimal interval design with at least 3 patients enrolled per dose level. In the first 21-day treatment cycle (Dose Limiting Toxicity assessment period), mitazalimab was administered intravenously on days 1 and 10 and mFOLFIRINOX starts on day 8. In the second and subsequent cycles, treatment followed a 14-day cycle schedule where mitazalimab was administered 2 days after mFOLFIRINOX.

B1: Mitazalimab: agonistic, human monoclonal (IgG1) antibody targeting CD40 (antibody, chains of the INN, looked up, V domains shown)
VH: EVQLLESGGGLVQPGGSLRLSCAASGFTFSTYGMHWVRQAPGKGLEWLSYISGGSSYIFYADSVRGRFTISRDNSENALYLQMNSLRAEDTAVYYCARILRGGSGMDLWGQGTLVTVSS
VL: QSVLTQPPSASGTPGQRVTISCTGSSSNIGAGYNVYWYQQLPGTAPKLLIYGNINRPSGVPDRFSGSKSGTSASLAISGLRSEDEADYYCAAWDKSISGLVFGGGTKLTVL
As for B1, where the note is “in vivo”, the AESIs entry was “None”; the DLTs entry is “G3 Headache”; the “DLTs, %” value is listed as “(9.1) %”; the “Discontinued treatment: Unacceptable toxicity, percentage of patients” value is reported as “(11.6) %”. Also, where the note is “in vivo”, the “Discontinued treatment: Unacceptable toxicity, percentage relative to number discontinued” value was determined as 15.4%; the “Grade 1 or 2 TEAEs, %” value turned out to be 81.8%; the “Grade 3 TEAEs, %” value turned out to be 36.4%; the “Mitazalimab Related Adverse Events: Grade 1 or 2 TEAEs, %” value is on record as “(72.7) %”. Where the note is “in vivo”, the “Mitazalimab Related Adverse Events: Grade 3 TEAEs, %” value is on record as “(9.1) %”; the “Mitazalimab Related Adverse Events: patients with any TEAEs, %” value is given as “(72.7) %”; the “Mitazalimab-related Grade 1-2 Fatigue” value stood at 3; the “Mitazalimab-related Grade 1-2 Fever or similar” value turned out to be 6. Moreover, where the note is “in vivo”, the “Mitazalimab-related Grade 3 Fatigue” value was 2; the “Mitazalimab-related Grade 3 Headache” value came out at 1; the “Mitazalimab-related Grade 3 Hypokalemia” value is on record as 1; the “Patients with any TEAEs, %” value came out at 81.8%. The “Mitazalimab-related Grade 1-2 Flu/muscle ache” value (of 11 patients at 2 dose levels) is recorded as 5.
